Reference: article PMC7276322
pKd: −log10 of the molar value.

Biological target: CV30 (human)
Assay: BLI

“SARS-CoV-2 receptor binding domain (from UniProt P0DTC2 319-591) (domain or fragment)” gave a pKd of 8.44.
